The values below come from article PMC5624781.

The target in experiment [1] is EEA1 (Homo sapiens) (UniProt Q15075). The following applies: cited from earlier work.
The target in experiment [2] is GST-EEA1_(36-91) (UniProt Q15075). As to the kind of experiment: BLI; BLItz system (ForteBio); 0.5 µM GST-Rabaptin5_(551-862) or GST-EEA1_(36-91) immobilised on anti-GST sensors; GppNHP-loaded Rab5 or mUbRab5 at several concentrations in solution; 50 mM Tris-HCl, 150 mM NaCl, 10 mM MgCl2, 1 mM GppNHP; global fit, Kd = koff/kon. (In general: Biolayer interferometry detects binding as a change in optical thickness at a sensor tip.)

For experiment [3], the target named is GST-Rabaptin5_(551-862) (UniProt Q15276). The experiment is described as above.

As to Rab5 (from UniProt P20339), in experiment [1], the Kd (in general, the equilibrium constant for the complex coming apart) is 2.4 µM.
For “Rab5 (unmodified Rab5a) (from UniProt P20339 1-215) (natural protein)”, in experiment [2], the Kd stood at 5.8 µM; the koff (in general, a measure of how fast the partners let go of each other) amounted to 0.0026 s⁻¹; the on-rate constant (kon) – broadly, a measure of how fast the partners come together – amounted to 450 M⁻¹ s⁻¹. In experiment [3], this substance came in with a Kd of 8 µM, a koff of 0.0022 s⁻¹ and a kon of 660 M⁻¹ s⁻¹.
“mUbRab5_(K116), chemically conjugated monoubiquitinated Rab5 (ubiquitin G76C disulfide-linked to Rab5 K116C) (from UniProt P0CG48 1-76)”: the Kd in experiment [2] was 18.4 µM; in experiment [3], 8 µM.
For the substance “mUbRab5_(K140), chemically conjugated monoubiquitinated Rab5 (ubiquitin G76C disulfide-linked to Rab5 K140C) (from UniProt P0CG48 1-76)”, the Kd in experiment [2] was 108 µM; in experiment [3] it was 37.7 µM.
In turn, “mUbRab5_(K165), chemically conjugated monoubiquitinated Rab5 (ubiquitin G76C disulfide-linked to Rab5 K165C) (from UniProt P0CG48 1-76)” gave a Kd in experiment [2] of 4.7 µM.
